Target: T1, Caveolin-1 1-178 (UniProt Q03135)
T1 chain: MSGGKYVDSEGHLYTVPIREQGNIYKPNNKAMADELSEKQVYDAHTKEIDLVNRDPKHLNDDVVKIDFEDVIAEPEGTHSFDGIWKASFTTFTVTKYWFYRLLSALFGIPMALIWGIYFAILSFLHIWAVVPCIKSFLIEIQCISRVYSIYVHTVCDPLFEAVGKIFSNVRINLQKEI
Assay: given as Ka

B1: PrP (protein)
chain: not shown
With B1 the Kd was roughly 1.18 nM.
